The target in assay [1] is T1, His-tagged mArfN37 (N-terminal 37 amino acids of mouse p19Arf with poly-His tag) (mouse).
T1 construct: Captured on the SPR chip by a covalently linked anti-His antibody; Tag placed first here; also called His-mArfN37; His-tagged mArf37
T1 chain: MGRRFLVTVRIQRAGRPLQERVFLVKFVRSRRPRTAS
Briefly: SPR, His-tagged mArfN37 captured by anti-His antibody, peptide injected, signal minus reference cell [c]. The method, then: (§1) Binding studies were performed using a Biacore 3000 surface plasmon resonance (SPR) instrument (Biacore, Inc.). A Tetra-His™ Antibody (Qiagen, Inc.; Cat. #34670) was covalently attached to a carboxymethylated gold surface (C-1 chip; Biacore, Inc.). The carboxymethyl groups on the surface were activated with N-ethyl-N′-(3-dimethylaminopropyl) carbodiimide (EDC) and N-hydroxysuccinimide (NHS) and the antibody was attached at pH 7.4 in 20 mM sodium phosphate buffer, 150 mM NaCl (PBS). Reactive sites remaining on the surface were blocked by reaction with ethanolamine. The His-tagged ligand was attached to the antibody by injecting a 5-10 μg/ml solution of the ligand in 10 mM HEPES, 150 mM NaCl, pH 7.4 (HBS-N buffer, Biacore) at a flow rate of 10 μL/min through the flow cell. A reference cell was prepared similarly except that no His-tagged ligand was added. Binding was measured by flowing the non-His-tagged analyte through the reference and ligand-containing flow cells in sequence. Prior to injection of ligands, the chip surfaces were equilibrated in HBS-N buffer. Changes in the SPR response due to solvent differences and the injection process were monitored by injection of HBS-N buffer alone. Regeneration of the chip surface to remove bound analyte and ligand was accomplished by two 100 μL injections of 10 mM glycine, pH 2.0 through both flow cells. Data reported is the difference in SPR signal between the flow cell containing analyte and the reference cell. Duplicate injections were made and the SPR response values reported are the average of these two injections.
A similar approach using short synthetic peptides and SPR was used to map the segments of Hdm2 that bind mArfN37 (FIG. 5c). […] The first of these as Arf-binding segment is termed “H1” and the second is termed segment “H2”.
A general note: SPR reads the build-up and loss of mass on a sensor chip optically.

A further assay has as its target T2, His-tagged Hdm2 210-304 (human, UniProt Q00987 210-304).
T2 construct: Captured on the C-1 chip by anti-His antibody for the Arf peptide library SPR; Tag placed first here
Briefly: SPR, His-tagged Hdm2 210-304 captured by anti-His antibody, peptide injected 10 min, signal minus reference cell [b]. As to the method: as §1, with “Reactive” for “Binding studies were performed using a Biacore 3000 surface plasmon resonance (SPR) instrument (Biacore, Inc.). A Tetra-His™ Antibody (Qiagen, Inc.; Cat. #34670) was covalently attached to a carboxymethylated gold surface (C-1 chip; Biacore, Inc.). The carboxymethyl groups on the surface were activated with N-ethyl-N′-(3-dimethylaminopropyl) carbodiimide (EDC) and N-hydroxysuccinimide (NHS) and the antibody was attached at pH 7.4 in 20 mM sodium phosphate buffer, 150 mM NaCl (PBS). Reactive”
Two libraries of peptides 15 amino acids in length were synthesized based on the sequence of exon 1β of mouse p19^Arf and the entire sequence of human p14^Arf. The sequence for the first peptide in each library corresponded to the first 15 amino acids of the protein sequences. […] This approach yielded two libraries of overlapping peptides spanning mouse p19^Arf residues 1-64 and human p14^Arf residues 1-132. The ability of these peptides to bind Hdm2 fragments was determined using the surface plasmon resonance (SPR) technique with a Biacore 3000 instrument. […] Library peptides were allowed to flow over the Hdm2 surface, or over a control surface lacking an Hdm2 fragment.

T2 sequence (Q00987 210-304): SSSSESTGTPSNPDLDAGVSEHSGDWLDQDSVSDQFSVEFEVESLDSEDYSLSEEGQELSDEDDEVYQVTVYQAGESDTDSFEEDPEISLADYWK

B1: 285-299 (Hdm2 peptide) (peptide)
peptide: Ac-ESDTDSFEEDPEISL-NH2
notes: also called Hdm2 library peptide, residues 285-299
For B1, in assay [1], the binding result is on record as “no binding”.

B2: human p14Arf library peptide, residues 11-25 (peptide)
peptide: Ac-IRRACGPPRVRVFVV-NH2
notes: also called third peptide of the human library
As for B2, the binding result with His-tagged Hdm2 210-304 is reported as “binds”.

B3: 66-80 (human Arf peptide) (peptide)
peptide: Ac-HDDGQRPSGGAAAAP-NH2
notes: also called human p14Arf library peptide, residues 66-80
Consider B3, for which the binding result with His-tagged Hdm2 210-304 was “no binding”.

For the molecule Ac-EVESLDSEDYSLSEE-NH2 [250-264 (Hdm2 peptide)], the binding result in assay [1] is “binds”.

B4: 61-75 (human Arf peptide) (peptide)
peptide: Ac-PRRPGHDDGQRPSGG-NH2
notes: also called human p14Arf library peptide, residues 61-75
Take B4: the binding result with His-tagged Hdm2 210-304 was “no binding”.

B5: 230-244 (Hdm2 peptide) (peptide)
peptide: Ac-EHSGDWLDQDSVSDQ-NH2
notes: also called Hdm2 library peptide, residues 230-244
Take B5: the binding result in assay [1] is “no binding”.

B6: 26-40 (human Arf peptide) (peptide)
peptide: Ac-HIPRLTGEWAAPGAP-NH2
notes: also called human p14Arf library peptide, residues 26-40
As for B6, the binding result with His-tagged Hdm2 210-304 is listed as “no binding”.

B7: 106-120 (human Arf peptide) (peptide)
peptide: Ac-GHAGGAAPGRGAAGR-NH2
notes: also called human p14Arf library peptide, residues 106-120
For B7, in the assay with His-tagged Hdm2 210-304, the binding result is recorded as “no binding”.

B8: human p14Arf library peptide, residues 6-20 (peptide)
peptide: Ac-LVTLRIRRACGPPRV-NH2
notes: also called second peptide of the human library
Consider B8, for which, in the assay with His-tagged Hdm2 210-304, the binding result is recorded as “binds”.

B9: 111-125 (human Arf peptide) (peptide)
peptide: Ac-AAPGRGAAGRARCLG-NH2
notes: also called human p14Arf library peptide, residues 111-125
As to B9, the binding result in the assay with His-tagged Hdm2 210-304 is on record as “no binding”.

B10: 101-115 (human Arf peptide) (peptide)
peptide: Ac-PGGLPGHAGGAAPGR-NH2
notes: also called human p14Arf library peptide, residues 101-115
For the molecule B10, the binding result in the assay with His-tagged Hdm2 210-304 is “no binding”.

B11: 76-90 (human Arf peptide) (peptide)
peptide: Ac-AAAAPRRGAQLRRPR-NH2
notes: also called human p14Arf library peptide, residues 76-90
B11: the binding result in the assay with His-tagged Hdm2 210-304 is “no binding”.

B12: 245-259 (Hdm2 peptide) (peptide)
peptide: Ac-FSVEFEVESLDSEDY-NH2
notes: member of the group m17; also called H1 segment peptide
With B12, the binding result in assay [1] is reported as “binds”.

In the case of Ac-SFEEDPEISLADYWK-NH2 [Hdm2 peptide, residues 290-304 of SEQ ID NO:8], the binding result in assay [1] is recorded as “binds”.

B13: 116-130 (human Arf peptide) (peptide)
peptide: Ac-GAAGRARCLGPSARG-NH2
notes: also called human p14Arf library peptide, residues 116-130
B13: the binding result with His-tagged Hdm2 210-304 is listed as “no binding”.

B14: 310-324 (Hdm2 peptide) (peptide)
peptide: Ac-EMNPPLPSHCNRCWA-NH2
modifications: cysteine pairing not given here
notes: also called Hdm2 library peptide, residues 310-324
As for B14, in assay [1], the binding result was “no binding”.

B15: 210-224 (Hdm2 peptide) (peptide)
peptide: Ac-SSSSESTGTPSNPDL-NH2
notes: also called Hdm2 library peptide, residues 210-224
Consider B15, for which the binding result in assay [1] is given as “no binding”.

B16: 220-234 (Hdm2 peptide) (peptide)
peptide: Ac-SNPDLDAGVSEHSGD-NH2
notes: also called Hdm2 library peptide, residues 220-234
With B16, the binding result in assay [1] is “no binding”.

B17: 270-284 (Hdm2 peptide) (peptide)
peptide: Ac-DEDDEVYQVTVYQAG-NH2
notes: also called Hdm2 library peptide, residues 270-284
On to B17, for which the binding result in assay [1] is recorded as “binds”.

B18: 51-65 (human Arf peptide) (peptide)
peptide: Ac-RSQRLGQQPLPRRPG-NH2
notes: also called human p14Arf library peptide, residues 51-65
Consider B18, for which the binding result in the assay with His-tagged Hdm2 210-304 is “no binding”.

B19: 31-45 (human Arf peptide) (peptide)
peptide: Ac-TGEWAAPGAPAAVAL-NH2
notes: also called human p14Arf library peptide, residues 31-45
Take B19: the binding result with His-tagged Hdm2 210-304 is given as “no binding”.

B20: 215-229 (Hdm2 peptide) (peptide)
peptide: Ac-STGTPSNPDLDAGVS-NH2
notes: also called Hdm2 library peptide, residues 215-229
For B20, the binding result in assay [1] is given as “no binding”.

B21: 240-254 (Hdm2 peptide) (peptide)
peptide: Ac-SVSDQFSVEFEVESL-NH2
notes: member of the group m17; also called Hdm2 library peptide, residues 240-254; H1 segment peptide
As for B21, the binding result in assay [1] is reported as “binds”.

B22: 91-105 (human Arf peptide) (peptide)
peptide: Ac-HSHPTRARRCPGGLP-NH2
notes: also called human p14Arf library peptide, residues 91-105
For the molecule B22, the binding result with His-tagged Hdm2 210-304 was “no binding”.

B23: human p14Arf library peptide, residues 1-15 (peptide)
peptide: Ac-MVRRFLVTLRIRRAC-NH2
notes: also called first peptide of the human library
On to B23, for which the binding result with His-tagged Hdm2 210-304 was “binds”.

B24: 81-95 (human Arf peptide) (peptide)
peptide: Ac-RRGAQLRRPRHSHPT-NH2
notes: also called human p14Arf library peptide, residues 81-95
For B24, the binding result in the assay with His-tagged Hdm2 210-304 is “no binding”.

For the molecule Ac-DSEDYSLSEEGQELS-NH2 [255-269 (Hdm2 peptide)], the binding result in assay [1] is reported as “no binding”.

B25: 21-35 (human Arf peptide) (peptide)
peptide: Ac-RVFVVHIPRLTGEWA-NH2
notes: also called human p14Arf library peptide, residues 21-35
For the molecule B25, the binding result with His-tagged Hdm2 210-304 is “no binding”.

B26: 300-314 (Hdm2 peptide) (peptide)
peptide: Ac-ADYWKCTSCNEMNPP-NH2
modifications: cysteine pairing not given here
notes: also called Hdm2 library peptide, residues 300-314
Consider B26, for which the binding result in assay [1] was “no binding”.

B27: 235-249 (Hdm2 peptide) (peptide)
peptide: Ac-WLDQDSVSDQFSVEF-NH2
notes: as for B12
As for B27, the binding result in assay [1] is reported as “binds”.

In the case of Ac-LRRPRHSHPTRARRC-NH2 [human p14Arf library peptide, residues 86-100 (contains the NoLS RRPR)], the binding result with His-tagged Hdm2 210-304 is “binds”.

As to Ac-LPSHCNRCWALRENW-NH2 (cysteine pairing not given here) [315-329 (Hdm2 peptide)], in assay [1], the binding result is listed as “no binding”.

B28: 56-70 (human Arf peptide) (peptide)
peptide: Ac-GQQPLPRRPGHDDGQ-NH2
notes: also called human p14Arf library peptide, residues 56-70
As to B28, the binding result in the assay with His-tagged Hdm2 210-304 is given as “no binding”.

B29: 320-334 (Hdm2 peptide) (peptide)
peptide: Ac-NRCWALRENWLPEDK-NH2
notes: also called Hdm2 library peptide, residues 320-334
With B29, the binding result in assay [1] is given as “no binding”.

B30: 280-294 (Hdm2 peptide) (peptide)
peptide: Ac-VYQAGESDTDSFEED-NH2
notes: also called Hdm2 library peptide, residues 280-294
As for B30, the binding result in assay [1] is “no binding”.

B31: 265-279 (Hdm2 peptide) (peptide)
peptide: Ac-GQELSDEDDEVYQVT-NH2
notes: also called Hdm2 library peptide, residues 265-279
Take B31: the binding result in assay [1] is on record as “no binding”.

B32: 41-55 (human Arf peptide) (peptide)
peptide: Ac-AAVALVLMLLRSQRL-NH2
notes: also called human p14Arf library peptide, residues 41-55
In the case of B32, the binding result with His-tagged Hdm2 210-304 is recorded as “no binding”.

B33: 71-85 (human Arf peptide) (peptide)
peptide: Ac-RPSGGAAAAPRRGAQ-NH2
notes: also called human p14Arf library peptide, residues 71-85
Consider B33, for which the binding result in the assay with His-tagged Hdm2 210-304 is listed as “no binding”.

B34: 96-110 (human Arf peptide) (peptide)
peptide: Ac-RARRCPGGLPGHAGG-NH2
notes: also called human p14Arf library peptide, residues 96-110
Take B34: in the assay with His-tagged Hdm2 210-304, the binding result is reported as “no binding”.

B35: 295-309 (Hdm2 peptide) (peptide)
peptide: Ac-PEISLADYWKCTSCN-NH2
modifications: cysteine pairing not given here
notes: also called Hdm2 library peptide, residues 295-309
B35: the binding result in assay [1] is reported as “no binding”.

B36: 260-274 (Hdm2 peptide) (peptide)
peptide: Ac-SLSEEGQELSDEDDE-NH2
notes: also called Hdm2 library peptide, residues 260-274
On to B36, for which the binding result in assay [1] is on record as “no binding”.

B37: 46-60 (human Arf peptide) (peptide)
peptide: Ac-VLMLLRSQRLGQQPL-NH2
notes: also called human p14Arf library peptide, residues 46-60
With B37, the binding result with His-tagged Hdm2 210-304 is reported as “no binding”.

These data come from patent US20020045192A1 (ST JUDE CHILDREN S RESEARCH HOSPITAL, published 2002).
